Experimental findings from the DeepSol protein solubility set are described below.

The nature of this data set: soluble on expression in E. coli; label from the status in PepcDB or PDB records.
Regarding “MAHHHHHHMSLPASHTTTPATASPEVLLAACTAEVQQLRDALHEVTLRERDGCSGSRGGTGGVAGGALGDVWEGKYLAMIRKNRDLTVQLGTTQQQLAAAQKALQAEQEKTQRLVAAVTVSSLGARGAKAGSKSAAGAAGVDDGCNSNSGSKSGGGSSGSEGAAAASSAAVARVYDKLHQKQLAMAEVQRENVALRSLIQREVGLRDDTKEVNRLLRRATAVSSNGGSAAAAAGGTSASGADGGGWRGRAEEIVLLKSKLKDAQREVEEMAAAQSSSENGTDACTDPLSLPASVRAFLGASGDPAAEARSVVTTTTAQVRRPRRDVDDDARDRLSAMQQQRAAQQRQLAADLAELQQQLNEERMRSSALQARTKTMKSELDTLRSYVDTILEKSSTDDELVEAYKTELQRAHEEARHWRRVAADALKEAGGGKTSAALTVSGVHNGLNNAAAAAVRTAPYRKAAGDEKAVAAGGGDAGNVRGAPLPLPPPQPLTSFSRSLYEWVCQACDEVPEGKEQERTEPAVAASAKQLAAVLRQAFQHLVLVEQHTVAGNDMGHASTDSASSESILLKENAALKTRIRALSELMEKELQAQRVLWATAAAGAGATPSTETKERERQQ”, the “soluble on expression in E. coli” value was “not soluble”. Turning to “MLGNLKPQAPDKILALMGEFRADPRQGKIDLGVGVYKDATGHTPIMRAVHAAEQRMLETETTKTYAGLSGEPEFQKAMGELILGDGLKSETTATLATVGGTGALRQALELARMANPDLRVFVSDPTWPNHVSIMNFMGLPVQTYRYFDAETRGVDFEGMKADLAAAKKGDMVLLHGCCHNPTGANLTLDQWAEIASILEKTGALPLIDLAYQGFGDGLEEDAAGTRLIASRIPEVLIAASCSKNFGIYRERTGCLLALCADAATRELAQGAMAFLNRQTYSFPPFHGAKIVSTVLTTPELRADWMAELEAVRSGMLRLREQLAGELRDLSGSDRFGFVAEHRGMFSRLGATPEQVKRIKEEFGIYMVGDSRINIAGLNDNTIPILARAIIEVGV”, the “soluble on expression in E. coli” value is recorded as “soluble”. For the sequence “MNYMELYDVDEFWKFQMKVGLVKKAEKIKRTKKLIKLIVDFGNEERTIVTGIADQIPPEELEGKKFIFVVNLKPKKFSGVESQGMLILAETEDGKVYLIPVPEEVPVGARVW”, the “soluble on expression in E. coli” value was “soluble”. Regarding “MIEIHKKFLEKDELFQFLKVAKYHHSPQNSFEVFTTLAYTGMRAGELLALKWSDIDFENNTISITKTYYNPNNNKKHYQILTRKTESSIGKITVDPHVIQLLKDYKVNVQDTWKNELYVDNNFVFTDVNGYPLVIKKLQLWIKAILKKTDITNKQISTHSFRYTHYALLIEAGVHIKEIQERLRHKDINTTMNIYAKITNSYKKDASQKFSKLEHHHHHH”, the “soluble on expression in E. coli” value is given as “not soluble”.

For the sequence “MSSYDVVIIGGGPAGLFAAYELAGLAKDNVSNYKILLVDKGARASKRTCPLLSPKEKCTFCDPCHIMYGFGGAGTFSSGIINLRPDIGGELHEITRSWDKAQELINYVDDIFVKFGAPKDRVFEPNMEKVREIQRRAAKVGAEFVPIRQRHMGTDKTPLIIENIVNYVEKRGIKIGELTEVIDIEKKGNKFFLKTSRGEIESRIVLVAPGRAGAKWFYEQSKKLGVDTIPGPLDIGVRVETESFVFDELTEAVWDPKVILYSKRYDDKVRTFCVNPRGYIMKEVYDDGTIGVNGETYVDKKSNNTNFAFLTTIKLSDPLEDTIEYGKSIARLMTRLGGGKPILQRLIDFQKGRRSTWERINRSTVKPTLRDVTPGDISMGLPYRVVDNLIDGLERLDSIAPGIFSSNTLLYAPEIKYYSVRAVVDNNMETVVDNLFAAGDGTGLSRGINVAAATGILAARGIAIKLGLDLEHHHHHH”, the “soluble on expression in E. coli” value is given as “not soluble”. As for “MATYRKSRAFAPEGFFECEGRGLEWLGAAHAQGGPRVVQVYGWGKDYLDIERVGSASPTPQAARAFGAALARMHDAGAKYFGSAPDGYNGTCYFGPLQDPVKMDTGEWTDPISYFADGRLRPMVNLGVKRGELDKRDVELTERVIEALPDLMGRAAADKPARIHGDLWSGNVMWTADSGQSEAVLIDPAAHGGHREEDLAMLHLFGMSYLSEITEGYQSVHPLKAGWQERITLWQLYPIAGHCVFFGGGYVNEYRSMCRSLLKLEHHHHHH”, the “soluble on expression in E. coli” value is “not soluble”. “MGSDKIHHHHHHMRVILAPMQGVLDPFVRELLTEVNDYDLCITEFVRVVDQLLPEKVFYRLCPELKNQGFTSSGTPVRVQLLGQHPKCLAENAIRAIDLGSHGIDLNCGCPSKTVNGSNGGAALLKQPELIYRATQALRRAVPSEFPVSVKVRLGWDDISQAFEIADAVEQGGATEITVHGRTKADGYRADRINWKKISEVRERLSIPVIANGEIWHWQDGQDCLSQTGCQDLMVGRGALNIPNLSHVLKSNAEKMPWYEIQKILQKYANVENEYDSGFYHVARIKQWLRYLNKEYNEANQVFDKIKTCQTAEDLKLRLNEK”: the “soluble on expression in E. coli” value is recorded as “not soluble”. For the sequence “MGSDKIHHHHHHMTPIAQRDGQAIQLVGFDGDDTLWKSEDYYRTAEADFEAILSGYLDLGDSRMQQHLLAVERRNLKIFGYGAKGMTLSMIETAIELTEARIEARDIQRIVEIGRATLQHPVEVIAGVREAVAAIAADYAVVLITKGDLFHQEQKIEQSGLSDLFPRIEVVSEKDPQTYARVLSEFDLPAERFVMIGNSLRSDVEPVLAIGGWGIYTPYAVTWAHEQDHGVAADEPRLREVPDPSGWPAAVRALDAQAGRQQ”, the “soluble on expression in E. coli” value is “not soluble”.

For “MAIQLSKGQRIDLTKTNPGLTKAVIGLGWDTNKYSGGHDFDLDASAFLVDAHDNCVNDLDFVFYNNLEHPSGGVIHTGDNRTGEGDGDDEQIIVDFSKIPAHIEKIGITVTIHDAEARSQNFGQVSNAFVRVVDEETQNELLRFDLGEDFSIETAVVVCELYRHGGEWKFNAIGSGFSGGLAALCRNYGLQVLEHHHHHH”, the “soluble on expression in E. coli” value is listed as “soluble”. Consider “MDESEPVRQIYDHKDLAEFLESSAFQDIWDFVERLNCSVRGLSGDALAGPRVPATSLVTAELAALKELAAEVELLPAETGRFGNRAFRTWFSQLQERTPRFTEELLVKSDQTKRYGPDLQAYFLGAFGDPMRIDYGTGHEASFLLFMFCLHRLHLFRAEDFPELVLSVFPAYLATTRYLQQRFTLEPAGSHGVWGLDDYVFLPFLFGSSQLIGKDTEVPPVAARDRELVLELAPKYLYFDTIRFILETKRGPFAEHSPTLYDISGLENWSRINAGLLRMYKAEVWSKLPVIQHIPFGILIPFRSAARTSTERLPAGS”, for which the “soluble on expression in E. coli” value is reported as “not soluble”.

With “SLLEECDFPTVKDIENEFEQLKEKNVRAVARLITMAEEQAKTKEAAVTLDDKLVSLKKLNQPSPPVLGITGTGGAGKSSLTDELVRRFLNEFTDKTVAILSIDPTKQKTGGALLGDRIRMNAIHSPRVFMRSLATRGSRTEISESIRDAIAVVKAAAYDLVIVETSGIGQGDAEITEIADISMYVMTSEYGAPSQLEKIDMIDFADVIAINKFDRKGSEDALRHVRKQYQRSHQRFDEPLEAMPVYGTIASQFNDIGTNTLFAAVIDILNKKCKTSWDTSIETSKEVMKQNIIIPPERTQYLRDIVQTVKQYK”, the “soluble on expression in E. coli” value is reported as “soluble”.

For the sequence “MKIAIAGAGAMGSRFGLMLKQGGNDVLLIDGWQEHINAIKENGLKANYNGEEITVKVSIVNQNEVPTGEQFDLIILFTKAMQLEKMLQDVKPLIADHTEVLCLLNGIGHEDVIEKFVPMEKIFIGNTMWTAGLEGPGKAKLFGSGSVELQNLGIGQEESAKKLAETLSASGLNAKYSDNIHYSIYRKACVNGTMNGLCTILDVNMAGLGATKPAHDMVVTIVNEFAAVAAKENVNLDIPEVIEHVETCFDPTTIGMHFPSMHQDLIKNNRLTEIDYINGAISRKGKKYGVVTPYCDFLTQLVHSKEEILGAK”, the “soluble on expression in E. coli” value is given as “not soluble”. The entry for “MTQTYNADAIEVLTGLEPVRRRPGMYTDTTRPNHLGQEVIDNSVDEALAGHAKRVDVILHADQSLEVIDDGRGMPVDIHPEEGVPAVELILCISVVNALSKRVEVNVRRDGQVYNIAFENGEKVQDLQVVGTCGKRNTGTSVHFWPDETFFDSPRFSVSRLTHVLKAKAVLCPGVEITFKDEINNTEQRWCYQD” is “soluble”.

“MGSDKIHHHHHHMAKVAHKKLLLSELQPGMRVKLPLSWTNHPFLFNRVDINSAAQIEMIRGLGVPFVYLISGSSDDAEAVDEEEEIEEIDEMPPERDLKADTRKSMRLSQKRFLESVNQCRNVFGKIVSDPEGAYRLSAALVEDLLSHLQEVQKPFLTLVGMDEKDVSVTQHGVSVAVLAMMIGHALDLPARELRDIALGSLFHDIGKLKVPDVIRRKRSALTPHEANYLQMHPNFGYDMLNRSGLFPKEVLNIVLHHHEFVDGSGFPDGLTGHKIPMVTQIVSLANDYDQQLSGQQATSPQVALGYLFKNRASKHSESLISVLVKILGIYPPGTIVKLSDDNVAKVIMTTKEVSQPQVWACKEDGSEASLRFLSDEGVTVQKSLRVEDLTEGAKRTLQVDKGISFYFSSLQA”: the “soluble on expression in E. coli” value is “not soluble”. Consider “MSLNGLKRGFPVMKEQIGGKLICISGIPGTGKSTICNLLNDLGYTCVEGNALAVKYGCLSGDEVDVDCLSDRMRSDNFKGIVAAHYAHLLPCNIVIILEADESALRQRMMDRGYSPEKIDENLDAQRSDTIYAESLERLPANRIFRIRNADLNVALSDILRIIGGRNEGHHHHHH”, for which the “soluble on expression in E. coli” value is recorded as “soluble”.

As to “MGSDKIHHHHHHMPPRPFDEMTNPDGGIRSPYGLYSDWVNQTPLDVLRQKHAQADVLFRRIGITFAVYGDNQGGERLIPFDVVPRIISKKEWDILSRGVCQRVDALNRFIYDVYHDQEILKAGKVPKGLVRNNGQFRKEMVGFTPPRNLYVQIAGIDIVRTAENEFHVLEDNLRTPSGVSYMLENRDVMTRLFPELFNRHPVAPVNHYAQELLKTLQYSAPDHADNPTVVVLTPGQYNSAYFEHAFLADEMGIELVQGQDLFVEGGHVYMRTIAGPQRVDVIYRRIDDDFLDPLAFRKDSMLGVPGLFEAYRSGAVTLANAIGTGIADDKAIYDFVPGMIEFYLGEKPILRNVPTYHLDDDDDRAYVLEHLAELVVKEVHGSGGYGMLVGPRASRQQISDYRDRILADPANFIAQPTLALSTCPTFVDQGLAPRHVDLRPFVLAGKTTQVVPGGLTRVALEKDSLVVNSSQGGGTKDTWVLER”, the “soluble on expression in E. coli” value was “not soluble”.

Turning to “MGSDKIHHHHHHMTPDQYCQEKAVQSGSSFYYSFLYLPPERRRAITALYAFCREVDDVVDECTEASVARVKLAWWRQEVAAIFDAGGNKPSHPVAQALAGVASTFNLTADRLNEIIDGMEMDLDYNRYADFDTLRHYCYHVASVVGLCSAEIFGYRNPKTLEYAQDLGLAFQLTNIIRDVGEDARRDRIYLPQDELARFGVSNEDILQSRETDNFRRLIEFQIDRAESYYANAFAALPEEDRKSQRSGIIMAAIYQALLKEIKADGCHVMRQRISLTPLRKLWIAWKTWMKG”, the “soluble on expression in E. coli” value was “not soluble”. For “NPYETFRIADELRRELVGDTVTYVVNRNINFTDICINDCKFCSFRNRKKYLLSLDEIKQKVEEAVEFGCTELCIQGGLLPDADLDFYLSILQAVRDVDKKIHIHAFSPMEVVHAARNSGMTVEEVLKELKKEGLGSMPGTAAEILDDSIRALICPRKLKTAEWVEVIKTAHRVGIPTTATIMYGHIDTWEHRINHLLLIKKIQQETGGITELIPLPFMSKNNELGRYAKGSSGFDDLLMIAIARILLYPEIKNIQASWVKMGQKLAQAALHVGANDLGGTLMEENISKSAGATSGEFMHPEELRELIKIAGRVPKQR”, the “soluble on expression in E. coli” value is reported as “not soluble”. For “LWHASIAIVGSRQPSAGGLDHSYGFAQALAARGLGIISGMAAGIDATAHEAALSIPSGHTVAVLGTGPDVPYPARHKKLHARITTDGAVISEYPPGTQPRAAHFPQRNRIIAGLALGTLVVEAGARSGALITARLAAEAGRAVFAVPGSLHNPMTRGCHQLIRQGATLVQDIDQILED”, the “soluble on expression in E. coli” value was “not soluble”. For the sequence “GSGEQHFAEGHEQAFTGKESAAMKDVVSGHATHEAGKSTTAQPTETRSTSESSHSLRDSIMAQVRDAVTTREPNGNGRISIRLNPVELGELTINVRVADQQVKVDVVAANGQVRDILLNNLDNLKENFSRQNLTMTGFDVSTGT”, the “soluble on expression in E. coli” value is listed as “not soluble”.
